The labels stand for the following.
B1: FITC-labelled JD_(1-77) (domain or fragment)
chain: not shown
modifications: FITC-maleimide label (site not stated)

One data set addresses HspA1A (human Hsp70) (human, UniProt P0DMV8 1-641). As to the kind of experiment: fluorescence polarisation.
In data set [1] the target is B1. Kind of data set: MST.
Data set [2] addresses B1. Kind of data set: fluorescence polarisation.
The data set “cross-linking” deals with the molecule itself. As to the kind of experiment: cross-linking.
The data set “dynamic light scattering” deals with the molecule itself. As to the kind of experiment: dynamic light scattering.

Chain of HspA1A (human Hsp70) (P0DMV8 whole entry): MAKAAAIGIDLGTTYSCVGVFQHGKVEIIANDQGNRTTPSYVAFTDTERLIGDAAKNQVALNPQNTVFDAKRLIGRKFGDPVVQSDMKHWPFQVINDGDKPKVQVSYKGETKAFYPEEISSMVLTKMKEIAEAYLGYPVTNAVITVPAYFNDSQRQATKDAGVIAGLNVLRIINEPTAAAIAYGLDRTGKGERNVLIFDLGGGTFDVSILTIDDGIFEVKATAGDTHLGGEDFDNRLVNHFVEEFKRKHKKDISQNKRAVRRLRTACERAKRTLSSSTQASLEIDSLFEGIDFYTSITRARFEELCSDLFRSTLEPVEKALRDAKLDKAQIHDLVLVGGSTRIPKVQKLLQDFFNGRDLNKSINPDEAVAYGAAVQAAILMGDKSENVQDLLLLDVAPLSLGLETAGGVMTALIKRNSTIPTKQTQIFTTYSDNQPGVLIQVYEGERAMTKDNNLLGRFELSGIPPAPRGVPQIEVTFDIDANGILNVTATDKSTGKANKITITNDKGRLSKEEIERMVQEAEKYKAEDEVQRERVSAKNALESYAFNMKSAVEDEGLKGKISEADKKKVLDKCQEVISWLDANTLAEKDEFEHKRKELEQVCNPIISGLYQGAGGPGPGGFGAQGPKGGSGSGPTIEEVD

In turn, B1 returned a dissociation constant (Kd) with HspA1A (human Hsp70) of 257 ± 29 nM.

B2: DnaJB8 C-terminal domain CTD_(170-232) (domain or fragment, human, UniProt Q8NHS0 170-232, looked up)
chain: GGSSSGSSGFKSVMSSTEMINGHKVTTKRIVENGQERVEVEEDGQLKSVTVNGKEQLKWMDSK
As to B2, the Kd with FITC-labelled JD_(1-77) [1] was found to be 5360 ± 1150 nM; with FITC-labelled JD_(1-77) [2], 542 ± 71 nM.

B3: DnaJB8-mClover3 fusion protein (natural protein, human, UniProt Q8NHS0 1-232, looked up)
chain: MANYYEVLGVQASASPEDIKKAYRKLALRWHPDKNPDNKEEAEKKFKLVSEAYEVLSDSKKRSLYDRAGCDSWRAGGGASTPYHSPFDTGYTFRNPEDIFREFFGGLDPFSFEFWDSPFNSDRGGRGHGLRGAFSAGFGEFPAFMEAFSSFNMLGCSGGSHTTFSSTSFGGSSSGSSGFKSVMSSTEMINGHKVTTKRIVENGQERVEVEEDGQLKSVTVNGKEQLKWMDSK
As to B3, in “cross-linking”, the binding result was “binds”.

B4: DnaJB8 (recombinant full-length wild type) (natural protein, human, UniProt Q8NHS0 1-232, looked up)
chain: MANYYEVLGVQASASPEDIKKAYRKLALRWHPDKNPDNKEEAEKKFKLVSEAYEVLSDSKKRSLYDRAGCDSWRAGGGASTPYHSPFDTGYTFRNPEDIFREFFGGLDPFSFEFWDSPFNSDRGGRGHGLRGAFSAGFGEFPAFMEAFSSFNMLGCSGGSHTTFSSTSFGGSSSGSSGFKSVMSSTEMINGHKVTTKRIVENGQERVEVEEDGQLKSVTVNGKEQLKWMDSK
B4: the binding result in “dynamic light scattering” was “binds”.

Values taken from article doi:10.1101/2020.01.09.899237 (bioRxiv, 2020).
